Data published in publication PMC2670261, “Characterization of the interaction between Actinin-Associated LIM Protein (ALP) and the rod domain of α-actinin” (BMC Cell Biology, 2009).
Residue numbers refer to the chain shown, from its start. One block for each molecule: values may come before it.

Tests used:
[1] = target: ALP107-273 (internal region fragment of actinin-associated LIM protein, residues 107-273) (human); experiment: SPR; Biacore 3000; ALP107-273 or peptide 3 immobilised by amine coupling on CM5; R1-R4 or R2-R3 as soluble analyte; 20 mM Tris pH 7.4, 150 mM NaCl, 0.005% P20; apparent Kd
[2] = target: α-actinin 2 rod domain, spectrin repeats 1-4 (R1-R4) (human) (UniProt P35609); experiment: SPR; Biacore 3000; α-actinin rod fragment (R1-R4 or R2-R3) immobilised by amine coupling on CM5; ALP107-273 or ALP peptides as soluble analyte; 20 mM Tris pH 7.4, 150 mM NaCl, 0.005% P20; apparent Kd
[3] = target: T1, α-actinin rod domain, spectrin repeats 1–4 (R1-R4) of human α-actinin 2 (Homo sapiens, UniProt P35609); experiment: SPR interaction with α-actinin rod R1-R4; assay type: binding; details: for Kd: SPR, 20 mM Tris pH 7.4, 150 mM NaCl, 0.005% P20
T1 construct: Rod fragments containing spectrin repeats 1–4 (residues 274–746); His-tag (cleaved yes); made in house; host or cells: Escherichia coli BL21(DE3)
Text: (§1) Internal fragments of human ALP (AF039018) and chicken ALP (AJ249218) were cloned into a modified pET24d vector (Novagen, Merck Biosciences, Schwalbach, Germany) as described earlier using BsmBI (NcoI)- NotI cloning sites. Rod fragments containing spectrin repeats 1–4 (residues 274–746) or repeats 2 and 3 (residues 371–637) of human α-actinin 2 have been described previously. A YFP-fusion of ALP107-273 was generated in a pEYFP-C1 vector (Clontech, BD Biosciences) at an EcoRI-BamHI restriction site. The deletion constructs of pEYFP-ALP107-273 were generated by PCR. The α-Actinin-CFP construct is described elsewhere. All constructs were verified by DNA sequencing.
(§2) ALP internal fragments and an α-actinin rod containing the spectrin repeats 1–4 (R1-R4) and a fragment containing spectrin repeats 2 and 3 (R2-R3) were expressed at +37°C for 3–4 h in Escherichia coli BL21(DE3) strain as previously described. Briefly, proteins were purified using nickel nitrilotriacetic acid-agarose (Qiagen) as a first step. The His-tag was removed by tobacco etch virus protease (Invitrogen). For further purification, size exclusion chromatography (Superdex 75 16/60 and 26/60 columns, Amersham Biosciences) for ALP, and ion exchange (ProteinPakQ 8HR columns, Waters) for α-actinin fragments were used. The molecular weight standards for the gel filtration were obtained from Bio-Rad Laboratories. For NMR analysis, ^15N-labelled ALP107-273 and ^15N^13C-labelled ALP107-273 were produced in general M9-media with supplements. Expression was induced with 1 mM isopropyl-1-thio-β-D-galactopyranoside (IPTG) at +37°C for 8 hrs in E. coli BL21(DE3) strain. Low molecular weight markers used in SDS-polyacrylamide electrophoresis were obtained from Amersham Biosciences. Five ALP peptides were purchased from EZBiolab Inc. (Westfield, IN, USA).
A Biacore 3000 system (Biacore, Uppsala, Sweden) was used for surface plasmon resonance (SPR) analysis. Ligand immobilization was performed via amine coupling to gold sensor chips (CM5). […]

[4] = target: T2, α-actinin 2 rod domain, spectrin repeats 1-4 (R1-R4) (human, UniProt P35609 274-746); experiment: SPR; Biacore 3000; ALP107-273 or peptide 3 immobilised by amine coupling on CM5; R1-R4 or R2-R3 as soluble analyte; 20 mM Tris pH 7.4, 150 mM NaCl, 0.005% P20; apparent Kd; details: both partners purified
T2 construct: α-actinin 2, human, spectrin repeats 1-4, residues 274-746; also called α-actinin rod; α-actinin rod region; source: E. coli BL21(DE3), purified (Ni-NTA, TEV removal of the His-tag, ion exchange)

[5] = Concentration reached after purification; assay type: physicochemical; details: purified protein fragment
Protocol: as §2

[6] = tested on: U2OS cells, α-actinin in actin stress fibres; experiment: Live cell localization of YFP fusion with α-actinin-CFP; assay type: cell-based, human; details: YFP fusion expressed with α-actinin-CFP in living U2OS cells
Text: as §1
Human osteosarcoma (U2OS) cells were maintained in Dulbecco's modified Eagle's medium (DMEM) supplemented with 10% fetal bovine serum (Hyclone), 2 mM L-glutamine, penicillin and streptomycin (Sigma-Aldrich). Transfected cells were re-plated on fibronectin (10 μg/ml) coated glass bottom dishes (MatTek). General growth medium was used as imaging medium. The time lapse images were acquired with an IX-71 inverted microscope (Olympus) equipped with a Polychrome IV monochromator (TILL Photonics) with the appropriate filters, an Andor iXon (Andor) camera, a heated sample environment (+37°C) and CO2-control. A PLAPON 60xO TIRFM 60x/1,45 (oil) objective (Olympus) was used. […]

[7] = target: T3, α-actinin spectrin repeats 2–3 (R2-R3) of human α-actinin 2 (Homo sapiens, UniProt P35609); experiment: SPR interaction with α-actinin R2-R3; assay type: binding; details: Biacore 3000, R2-R3 immobilized, ALP107-273 as analyte
T3 construct: repeats 2 and 3 (residues 371–637) of human α-actinin 2; His-tag (cleaved yes); made in house; host or cells: Escherichia coli BL21(DE3)
Text: as §1
ALP internal fragments and an α-actinin rod containing the spectrin repeats 1–4 (R1-R4) and a fragment containing spectrin repeats 2 and 3 (R2-R3) were expressed at +37°C for 3–4 h in Escherichia coli BL21(DE3) strain as previously described. Briefly, proteins were purified using nickel nitrilotriacetic acid-agarose (Qiagen) as a first step. The His-tag was removed by tobacco etch virus protease (Invitrogen). For further purification, size exclusion chromatography (Superdex 75 16/60 and 26/60 columns, Amersham Biosciences) for ALP, and ion exchange (ProteinPakQ 8HR columns, Waters) for α-actinin fragments were used. The molecular weight standards for the gel filtration were obtained from Bio-Rad Laboratories. […]

[8] = tested on: CHO cells, stress fibres; experiment: Localization of YFP-ALP107-273 mutants at stress fibres; assay type: cell-based; details: YFP fused to ALP107-273 with deletions or mutations; CHO cells 24 h after transfection, 4 h on fibronectin; blinded scoring
Text: as §1
The pEYFP ALP107-273 and mutants were transfected into CHO cells as described previously. Following 24 hrs transfection, the cells were seeded for 4 hrs on coverslips coated with 10 μg/ml human plasma fibronectin (Sigma) and fixed with 4% paraformaldehyde in 140 mM NaCl, 10 mM Na-Phosphate pH 7.4. The coverslips were coded and the number of cells with YFP localization at stress fibres was counted by two observers who were blinded to the identity of the samples. At least 100 cells were scored from each coverslip, four coverslips were used per transfection, and the experiment was repeated at least three times.

T1 sequence (P35609 274-746): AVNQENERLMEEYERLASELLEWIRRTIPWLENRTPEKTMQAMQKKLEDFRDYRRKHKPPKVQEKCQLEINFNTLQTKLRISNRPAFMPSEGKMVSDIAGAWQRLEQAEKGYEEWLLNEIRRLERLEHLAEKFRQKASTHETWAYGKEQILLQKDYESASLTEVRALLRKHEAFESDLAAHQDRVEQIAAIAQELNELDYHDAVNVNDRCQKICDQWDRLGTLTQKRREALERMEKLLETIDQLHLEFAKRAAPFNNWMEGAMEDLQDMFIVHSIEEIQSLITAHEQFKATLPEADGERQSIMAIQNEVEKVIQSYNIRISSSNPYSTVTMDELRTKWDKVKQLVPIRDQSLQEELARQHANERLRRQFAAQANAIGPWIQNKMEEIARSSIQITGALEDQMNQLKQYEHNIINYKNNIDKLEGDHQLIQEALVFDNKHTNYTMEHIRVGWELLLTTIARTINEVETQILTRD
T3 sequence (P35609 371-637): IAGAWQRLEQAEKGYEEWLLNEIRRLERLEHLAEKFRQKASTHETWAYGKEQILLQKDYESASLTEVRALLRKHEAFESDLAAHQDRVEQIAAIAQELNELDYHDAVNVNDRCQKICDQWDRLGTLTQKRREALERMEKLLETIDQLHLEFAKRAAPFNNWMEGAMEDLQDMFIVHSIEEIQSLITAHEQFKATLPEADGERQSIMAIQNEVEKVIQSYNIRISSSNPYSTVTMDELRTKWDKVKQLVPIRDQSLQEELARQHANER
T2 sequence (P35609 274-746): as the sequence (P35609 274-746) above
Sequence of α-actinin 2 rod domain, spectrin repeats 1-4 (R1-R4) (human) (P35609 274-746): as above

Molecule: ALP107-273 (internal region fragment of actinin-associated LIM protein, residues 107-273) (domain or fragment)
Kd [2]: 270 nM

B2: ALP107-273: 167 residue construct of the human ALP internal region, residues 107–273; used as YFP fusion in cells (protein, UniProt Q53GG5 107-273, looked up, fragment)
chain: SEPQDGNYFEHKHNIRPKPFVIPGRSSGCSTPSGIDCGSGRSTPSSVSTVSTICPGDLKVAAKLAPNIPLEMELPGVKIVHAQFNTPMQLYSDDNIMETLQGQVSTALGETPLMSEPTASVPPESDVYRMLHDNRNEPTQPRQSGSFRVLQGMVDDGSDDRPAGTRS
modifications: YFP fusion
notes: 167 residue construct of the human ALP internal region, residues 107–273; used as YFP fusion in cells
concentration to which the purified fragment could be concentrated [5]: up to 30 mg/ml | Kd ([3]; Biacore 3000, CM5 amine coupling, R1-R4 immobilized, ALP107-273 as analyte): 270 nM | Kd ([3]; Biacore 3000, immobilized ALP107-273, soluble R1-R4): 4500 nM | co-localization with α-actinin [6]: co-localized with α-actinin in the stress fibres | Kd [7]: 6.8 nM

B3: YS197-198FA: YFP-ALP107-273 point mutant, conserved tyrosine and serine of ZM motif changed to phenylalanine and alanine (protein, UniProt Q53GG5 107-273, looked up, variant Y197F S198A)
chain: B2 chain with Y91F, S92A
modifications: residues 107-273 YFP fusion
notes: YFP-ALP107-273 point mutant, conserved tyrosine and serine of ZM motif changed to phenylalanine and alanine
YFP localization at stress fibres [8]: abrogated localization

The remaining lines, values ahead:

Kd [1]: 4500 nM
Molecule: α-actinin 2 rod domain, spectrin repeats 1-4 (R1-R4) (from UniProt P35609 274-746) (domain or fragment)

interaction with the rod domain in SPR ([3]; comparison with peptide 3 (Fig 7D)): did not interact
Molecule: MNKPEQALLVQIHPLVTEPFMG [scrambled version of peptide 3, scrambled peptide 3 containing the same amino acids in random order, reference compound]

Kd [4]: 3000 nM
B1: ALP peptide 3 (residues 175-196) (peptide)
peptide: PLEMELPGVKIVHAQFNTPMQL
notes: source: synthetic peptide, bought: EZBiolab Inc
